The source of these data is US20160311919A1.

The target in test [1] is GPNMB-V5His (recombinant human GPNMB extracellular domain with C-terminal V5-His tag) (human) (UniProt Q14956). Description: ELISA, coated GPNMB, Ab 1 ug/mL. (In general: ELISA stands for enzyme-linked immunosorbent assay.)
For test [2] the target is unchanged. Kind of test: ELISA, coated GPNMB, Ab 111 ng/mL.
Test [3] shares this target. Kind of test: ELISA, coated GPNMB, Ab 3 ug/mL.
Test [4] shares this target. Kind of test: ELISA, coated GPNMB, Ab 333 ng/mL.
The target of test [5] is GPNMB (CG56972), native full-length protein on the cell surface or in cell lysates (human) (UniProt Q14956). Description: FACS, UACC-62 cells, Ab 1 ug/mL. On the technique in general: A flow cytometer gives signals particle by particle.
Sequence of GPNMB (CG56972), native full-length protein on the cell surface or in cell lysates (human) (Q14956 23-492): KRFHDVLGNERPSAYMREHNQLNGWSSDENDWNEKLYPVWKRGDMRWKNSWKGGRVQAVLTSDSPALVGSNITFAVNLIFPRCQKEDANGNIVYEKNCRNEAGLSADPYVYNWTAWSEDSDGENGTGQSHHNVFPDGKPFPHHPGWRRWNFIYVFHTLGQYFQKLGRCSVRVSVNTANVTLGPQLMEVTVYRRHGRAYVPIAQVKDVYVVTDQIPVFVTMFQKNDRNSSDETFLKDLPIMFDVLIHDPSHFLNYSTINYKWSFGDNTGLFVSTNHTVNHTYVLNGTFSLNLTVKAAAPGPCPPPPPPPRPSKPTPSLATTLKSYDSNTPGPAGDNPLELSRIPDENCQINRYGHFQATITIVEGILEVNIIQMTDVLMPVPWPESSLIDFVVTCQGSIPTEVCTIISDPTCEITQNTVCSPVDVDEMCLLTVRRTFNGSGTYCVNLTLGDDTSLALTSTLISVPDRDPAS
For test [6] the target is unchanged. Kind of test: flow cytometry on HEK293 cells transfected with GPNMB plasmid, 10 µg/mL antibody, PE goat anti-human secondary; the same staining on empty-vector cells prints 7.96.
The target of test [7] is GPNMB-V5His (recombinant human GPNMB extracellular domain with C-terminal V5-His tag) (human) (UniProt Q14956). Description: ELISA, coated GPNMB, Ab 37 ng/mL.
Test [8] shares this target. Description: SPR (Biacore), mAb on protein A, GPNMB 880 nM. For orientation: Surface plasmon resonance follows binding to a sensor surface in real time, without labels.
The target is the same in test [9]. Description: ELISA, coated GPNMB, Ab 12.3 ng/mL.
For test [10] the target is unchanged. Description: ELISA, coated GPNMB, secondary antibody alone (column head 3 ug/mL).
Test [11] deals with GPNMB (CG56972), native full-length protein on the cell surface or in cell lysates (human) (UniProt Q14956). Kind of test: flow cytometry on SK-MEL-2 cells, Anti Human IgG PE.
Test [12] shares this target. Description: flow cytometry on HEK293 cells transfected with GPNMB plasmid, secondary antibody alone; on empty-vector cells it prints 5.86.

As to Irrelevant Antibody (Table 6), the Avg OD in test [1] is 0.008 OD; in [2] it was 0.013 OD; in [3] it was 0.009 OD; in test [4], 0.012 OD.

With CR011.2.6.2 (antibody), in [5], the Geo Mean Ratio (relative to pK16) came out at 1.9.

The substance isotype-matched control IgG2 antibody yielded a Geometric Mean in test [6] of 8.63.

As usually defined, the Kd is the constant that tells how readily two partners part at equilibrium. “Mab1.15.1 (CR011), fully human IgG2 (antibody)”: the Avg OD worked out at 0.381 OD in test [7]; 1.05 OD in [1]; 0.168 OD in test [9]; 0.701 OD in test [2]; 1.16 OD in test [3]; 0.902 OD in test [4]. In addition, the Kd in test [8] came to 52 nM.

As for Isotype control (Table 6) (antibody), the Avg OD in [7] amounted to 0.009 OD; in test [1], 0.008 OD; in test [9], 0.011 OD; in [2] it was 0.009 OD; in [3], 0.009 OD; in [4] it was 0.009 OD.

For the substance “Secondary Ab control (Table 6) (antibody)”, the Avg OD in test [10] is 0.011 OD.

Take Control (antibody): in test [11], the Geo Mean was 3.03, the Mean was 3.54 and the Median was 2.84.

On to Secondary Ab-PE (antibody), for which the Geometric Mean in test [12] was 7.69.
